By stoichiometry N is commonly meant the number of molecules, sites or subunits per partner or assembly.

The chains are these.
T1: LptC construct lacking the 23 residues long N-terminal transmembrane domain (E. coli), P0ADV9
T1 chain: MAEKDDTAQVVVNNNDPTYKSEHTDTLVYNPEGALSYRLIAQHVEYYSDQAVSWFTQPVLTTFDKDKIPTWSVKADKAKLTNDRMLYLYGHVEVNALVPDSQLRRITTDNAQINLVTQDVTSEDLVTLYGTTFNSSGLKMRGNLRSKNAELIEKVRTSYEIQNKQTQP

B1: LptC construct lacking the 23 residues long N-terminal transmembrane domain (domain or fragment, E. coli, UniProt P0ADV9 24-191, looked up)
chain: T1 chain
notes: LptC, E. coli, lacking the first 23 residues (transmembrane domain); For NMR the protein was isotope-labelled (2H, 13C, 15N, or AILV methyl-labelled) or unlabelled; also called LptC dimer; source: E. coli M15 [prep4], pQESH plasmid, purified (HiTrap, S75 SEC)
B2: LptAm (monomeric E. coli LptA mutant, LptA Δ160-185) (domain or fragment, UniProt P0ADV1 28-159, looked up)
chain: VTGDTDQPIHIESDQQSLDMQGNVVTFTGNVIVTQGTIKINADKVVVTRPGGEQGKEVIDGYGKPATFYQMQDNGKPVEGHASQMHYELAKDFVVLTGNAYLQQVDSNIKGDKITYLVKEQKMQAFSDKGKR
notes: LptA, E. coli, residues 28-159; lacks the last C-terminal β-strand (Δ160-185); For NMR the protein was isotope-labelled (2H, 13C, 15N) or unlabelled; the purified protein is 28-159; also called monomeric LptA; C-terminally truncated LptA; source: E. coli BL21(DE3), pET21b, purified (HiTrap, S75 SEC)

Test [1] deals with T1, LptC construct lacking the 23 residues …. Put plainly: SAXS; beamline BM29 (ESRF), 20 °C, NMR buffer with 0.5% w/v sucrose; LptAm 1.6 and 2.4 mg/ml, LptC 1, 2 and 3 mg/ml, LptAm:LptC 1:1 molar ratio at 3.6 and 5.4 mg/ml; extrapolated to zero dilution. The conditions noted are these: remark: other sources report otherwise.
Test [2] concerns the target B2. The test can be described thus: SEC-MALS; 40 µl injected on Superdex S200 (10/300GL) in buffer B (50 mM sodium phosphate, 150 mM NaCl, pH 8) at 25 °C; proteins alone and LptC-LptAm mixtures (also with a two-times molar excess of LptAm); protein conjugate two-component analysis for the complex. The conditions noted are these: both partners purified. (In general: In gel filtration, larger molecules generally elute earlier.)

For test [3], the target named is B2. Put plainly: NMR titration; isotope-labelled LptC or LptAm with the unlabelled partner (1.2 molar equivalents); 2D BEST-TROSY / methyl spectra; 35 °C, buffer B with 5% D2O; submillimolar concentrations. The conditions noted are these: both partners purified.
Test [4] concerns the target T1, LptC construct lacking the 23 residues …. Put plainly: SEC-MALS; 40 µl injected on Superdex S200 (10/300GL) in buffer B (50 mM sodium phosphate, 150 mM NaCl, pH 8) at 25 °C; proteins alone and LptC-LptAm mixtures (also with a two-times molar excess of LptAm); protein conjugate two-component analysis for the complex. The conditions noted are these: remark: other sources report otherwise.

Test [5] concerns the target B1. The test can be described thus: SAXS; beamline BM29 (ESRF), 20 °C, NMR buffer with 0.5% w/v sucrose; LptAm 1.6 and 2.4 mg/ml, LptC 1, 2 and 3 mg/ml, LptAm:LptC 1:1 molar ratio at 3.6 and 5.4 mg/ml; extrapolated to zero dilution. The conditions noted are these: both partners purified.

With B1, the stoichiometry N is 2 in test [1], 2 LptC:LptAm (2:1) in test [2], ~1 LptC:LptAm molar ratio in test [3] and 2 in test [4].
Take B2: the binding result in test [5] is listed as “binds”.

(Values after article PMC5575297, “Interaction of lipopolysaccharides at intermolecular sites of the periplasmic Lpt transport assembly” (Scientific Reports, 2017).)
